Results as given in article PMC10184639.

Molecular target: biotinylated CH848 DS SOSIP Trimer (HIV-1)
Test: SPR

B1: DH270.I5.6 Fab (Fab, V domains shown)
VH: QVQLVQSGAEVKKPGASVKVSCKASGYTFTDYYIHWVRQAPGQGLEWMGWINPNTGRTNSAQKFQGRVTMTRDTSISTAYMELSRLRSDDTAVYYCARGGWIGLYYDSSGYPNFDYWGQGTLVTVSS
VL: QSALTQPASVSGSPGQSITISCTGTSYDVGSYNLVSWYQQHPGKAPKLMIYEVSKRPSGVSNRFSGSKSGNTASLTISGLQAEDEADYYCCSYAGSSTVVFGGGTKLTVL
  fold improvement of the binding affinity relative to the UCA: 8 fold
